Assay results from patent US20260242455A1 (SCHOLAR ROCK, published 2026).
Read-outs that look alike come from different tables or passages of the source.

How the values were obtained:
murine latent GDF11 = murine latent GDF11 (murine, UniProt Q9Z1W4 21-296; Q9Z1W4 297-405, limits assumed); assay: ForteBio BLI
murine latent myostatin = molecular target: T1, murine latent myostatin (mouse, UniProt O08689 25-267; O08689 268-376, Non-covalent complex of prodomain and growth factor; disulfide-linked homodimer, one copy of each chain is given.); assay: ForteBio BLI
T1 construct: recombinant in BLI, endogenous in serum immunoprecipitation; also called Murine Latent GDF8; copies: 2 + 2

[1] = molecular target: T2, mature myostatin growth factor (UniProt O14793 267-375, limits assumed); assay: ForteBio BLI
T2 construct: mature; Amine-coupled to the sensor tips; also called Mature GDF8

[2] = molecular target: murine pro + latent GDF11 (murine, UniProt Q9Z1W4 21-405, limits assumed); assay: ForteBio BLI
murine pro-myostatin [3] = molecular target: T3, murine pro-myostatin (mouse, UniProt O08689 25-376); assay: ForteBio BLI
T3 construct: Recombinant in the BLI and reporter assays; endogenous mouse protein in the immunoprecipitation and immunofluorescence experiments; also called proGDF8 (mouse); Murine ProGDF8

murine pro-myostatin [4] = molecular target: T3, murine pro-myostatin; assay: cell-based or functional assay
murine pro-myostatin [5] = molecular target: T3, murine pro-myostatin; assay: ForteBio Octet BLI kinetics
proGDF11 = proGDF11 (UniProt O95390 25-407, limits assumed); assay: ForteBio Octet QKe BLI, antibody 50 µg/mL; flagged * non-specific binding, fitted to a poor response
Procedure: Binding affinities of antibody candidates were determined using the FortéBio Octet QKe dip and read label free assay system utilizing bio-layer interferometry. Antigens were immobilized to biosensors (streptavidin-coated biosensors for proGDF8, proGDF11 and proActivin; direct amine coupling for all others) in each experiment and the antibodies/constructs were presented in solution at high concentration (50 μg/mL) to measure binding interactions.

murine pro-myostatin [6] = molecular target: T3, murine pro-myostatin; assay: ForteBio Octet BLI kinetics; remark: listed apart in the source
murine pro-myostatin [7] = molecular target: T3, murine pro-myostatin; assay: cell-based or functional assay; remark: listed apart in the source
murine pro-myostatin [8] = molecular target: T3, murine pro-myostatin; assay: cell-based or functional assay; remark: listed apart in the source
murine pro-myostatin [9] = molecular target: T3, murine pro-myostatin; assay: ForteBio Octet BLI kinetics; remark: listed apart in the source
murine pro-myostatin [10] = molecular target: T3, murine pro-myostatin; assay: cell-based or functional assay; remark: listed apart in the source
[11] = molecular target: T4, pro-myostatin (proGDF8), species not stated in the experiment (UniProt O14793 24-375, limits assumed); assay: ForteBio Octet, biotinylated antigen on streptavidin sensor; IgG1
T4 construct: also called pro/latent-myostatin

human pro-myostatin = human pro-myostatin (human, UniProt O14793 24-375); assay: cell-based or functional assay
murine pro-myostatin [12] = molecular target: T3, murine pro-myostatin; assay: cell-based or functional assay; remark: listed apart in the source

murine latent GDF11, sequence (Q9Z1W4 21-296 limits assumed, chain 1 of 2): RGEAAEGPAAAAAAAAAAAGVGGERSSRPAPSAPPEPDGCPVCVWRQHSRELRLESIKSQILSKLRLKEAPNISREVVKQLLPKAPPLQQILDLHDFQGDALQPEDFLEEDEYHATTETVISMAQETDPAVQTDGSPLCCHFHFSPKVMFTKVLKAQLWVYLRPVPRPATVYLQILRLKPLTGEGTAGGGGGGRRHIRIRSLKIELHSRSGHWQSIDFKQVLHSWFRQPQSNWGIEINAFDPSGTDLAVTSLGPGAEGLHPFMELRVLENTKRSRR
murine latent GDF11, sequence (Q9Z1W4 297-405 limits assumed, chain 2 of 2): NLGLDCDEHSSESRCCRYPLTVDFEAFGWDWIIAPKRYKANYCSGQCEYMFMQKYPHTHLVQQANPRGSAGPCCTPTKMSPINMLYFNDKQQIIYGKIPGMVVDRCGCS
murine pro + latent GDF11, sequence (Q9Z1W4 21-405 limits assumed): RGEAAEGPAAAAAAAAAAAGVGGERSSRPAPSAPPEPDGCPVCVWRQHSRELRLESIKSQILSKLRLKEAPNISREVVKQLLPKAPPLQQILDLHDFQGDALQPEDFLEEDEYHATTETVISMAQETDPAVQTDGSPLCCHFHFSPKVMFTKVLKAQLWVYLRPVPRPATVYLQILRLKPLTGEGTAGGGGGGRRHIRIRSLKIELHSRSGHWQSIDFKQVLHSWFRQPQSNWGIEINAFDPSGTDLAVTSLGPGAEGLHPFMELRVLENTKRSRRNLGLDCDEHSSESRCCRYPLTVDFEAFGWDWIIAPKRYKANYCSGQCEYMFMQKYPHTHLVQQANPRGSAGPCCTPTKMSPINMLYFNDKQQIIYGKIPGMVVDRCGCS
proGDF11, sequence (O95390 25-407 limits assumed): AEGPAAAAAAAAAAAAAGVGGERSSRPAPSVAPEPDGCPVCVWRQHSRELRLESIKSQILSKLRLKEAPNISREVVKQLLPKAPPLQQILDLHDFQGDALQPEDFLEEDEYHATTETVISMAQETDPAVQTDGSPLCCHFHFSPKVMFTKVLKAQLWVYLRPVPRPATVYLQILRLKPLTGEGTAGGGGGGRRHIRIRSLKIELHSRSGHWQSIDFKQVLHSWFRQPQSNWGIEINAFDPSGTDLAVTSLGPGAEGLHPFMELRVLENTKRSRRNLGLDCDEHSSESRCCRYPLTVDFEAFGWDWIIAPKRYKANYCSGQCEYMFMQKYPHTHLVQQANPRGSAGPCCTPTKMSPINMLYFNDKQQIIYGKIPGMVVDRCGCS

Binder	binding result (murine latent GDF11)	Kd (murine latent myostatin) [nM]	binding result [1]	binding result [2]	Kd (murine pro-myostatin [3]) [nM]	EC50 Activation Assay (murine pro-myostatin [10]) [nM]	Kd [11] [nM]	Human proGDF8 IC50, Reporter assay (human pro-myostatin) [nM]	also measured
Ab1 (parental), IgG4 (S228P)/lambda (antibody, V domains shown, Fully human IgG4 (S228P), lambda; also called parental Ab1 IgG4; copies: 2 + 2) VH: QIQLVQSGGGVVQPGRSLRLSCAASGFTFSSYGMHWVRQAPGKGLEWVAVISYDGSNKYYADSVKGRFTISRDNSKNTLYLQMNSLRAEDTAVYYCARDLLVRFLEWSHYYGMDVWGQGTTVTVSS VL: not shown									Activity Assay - 293T cells EC50 (murine pro-myostatin [4]): 839 nM; Kd (murine pro-myostatin [5]): 11 nM; koff (murine pro-myostatin [5]): 0.00262 s⁻¹; kon (murine pro-myostatin [5]): 237000 M⁻¹ s⁻¹
Ab4 (germlined Ab3), IgG4 (S228P)/lambda (antibody, V domains shown, Human IgG4/lambda) VH: QVQLVESGGGVVQPGRSLRLSCAASGFAFSSYGMHWVRQAPGKGLEWVAVISYDGSIKYYADSVKGRFTISRDNSKNTLYLQMNSLRAEDTAVYYCARDLLVRFLEWSHKYGMDVWGQGTTVTVSS VL: not shown									Kd (proGDF11): 125 nM; Kd (murine pro-myostatin [6]): 1.08 nM; koff (murine pro-myostatin [6]): 0.000272 s⁻¹; kon (murine pro-myostatin [6]): 253000 M⁻¹ s⁻¹; Activity Assay - 293T cells EC50 (murine pro-myostatin [7]): 447 nM
Ab6 (germlined Ab5), IgG4 (S228P)/lambda (antibody, V domains shown, Human IgG4/lambda) VH: QVQLVESGGGVVQPGRSLRLSCAASGFAFSSYGMHWVRQAPGKGLEWVAVISYDGNNKYYADSVKGRFTISRDNSKNTLYLQMNSLRAEDTAVYYCARDLLVRFLEWSHKYGMDVWGQGTTVTVSS VL: not shown									Kd (proGDF11): 60.7 nM; Activity Assay - 293T cells EC50 (murine pro-myostatin [8]): 307 nM; Kd (murine pro-myostatin [9]): 0.954 nM; koff (murine pro-myostatin [9]): 0.000281 s⁻¹; kon (murine pro-myostatin [9]): 294000 M⁻¹ s⁻¹
Ab8 (antibody, V domains shown) VH: QIQLVQSGAEVKKPGASVKVSCKASGYTFTSYGISWVRQAPGQGLEWMGWISAYNGNTNYAQKLQGRVTMTTDTSTSTAYMELSSLRSEDTAVYYCARVGFYDYVWGSYPYDAFDIWGQGTMVTVSS VL: EIVMTQSPGTLSLSPGERATLSCRASQSVSSNYLAWYQQKPGQAPRLLIYDASNRATGIPARFSGSGSGTDFTLTISSLEPEDFALYYCQQYGTSPLTFGGGTKLEIKR	no binding (tested: 200 nM)		no binding (tested: 333 nM)	no binding (tested: 200 nM)	1.4	1600	500	6040	Murine proGDF8 IC50, Reporter assay (murine pro-myostatin [12]): 139000 nM
Ab7 (antibody, V domains shown) VH: QVQLQQSGAEVKKPGASVKVSCKASGYTFTSYYMHWVRQAPGQGLEWMGIINPSGGSTSYAQKFQGRVTMTRDTSTSTVYMELSSLRSEDTAVYYCARESLIRFLEDPQQGGMDVWGQGTTVTVSS VL: QSALTQPASVSGSPGQSLTISCTGTSSDIGGYNYVSWYQQHPGKAPKLIIYDVTDRPSGVSGRFSGSKSGNTASLTISGLQTEDEAEYFCNSWTRSNNYIFGGGTKLTVLG	no binding (tested: 200 nM)	28.4	no binding (tested: 333 nM)	no binding (tested: 200 nM)	32.9	555	28000	983	Murine proGDF8 IC50, Reporter assay (murine pro-myostatin [12]): 1680 nM

More lines, main results first:

binding result (murine latent GDF11)	Kd (murine latent myostatin) [nM]	binding result [1]	binding result [2]	Kd (murine pro-myostatin [3]) [nM]	EC50 Activation Assay (murine pro-myostatin [10]) [nM]	Kd [11] [nM]	Human proGDF8 IC50, Reporter assay (human pro-myostatin) [nM]	Binder	also measured
no binding (tested: 200 nM)	1.9	no binding (tested: 333 nM)	no binding (tested: 200 nM)	3.9				Ab12 (antibody, V domains shown, Fully human antibody) VH: QVQLVQSGGGLIQPGGSLRLSCAASGFTVSSYSMNWVRQAPGKGLEWVSYISSSGSTIYYADSVKGRFTISRDNAKNSLYLQMNSLRAEDTALYYCAKVGTAAAGDAFDIWGQGTMVTVSS VL: not shown	
no binding (tested: 200 nM)	1.8	no binding (tested: 333 nM)	no binding (tested: 200 nM)	1.6	1380			Ab11 (antibody, V domains shown, Fully human antibody) VH: QLQLQQSGGGLVKPGGSLRLSCAASGFTFSSYSMNWVRQAPGKGLEWVSSISSSSSYIYYADSVKGRFTISRDNAKNSLYLQMNSLRAEDTAVYYCVRDRHSLGDFDYWGQGTLVTVSS VL: SSELTQPSVSVSPGQTATITCSGDKLGDKYASWYQQKPGQSPVLVIYQDTKRPSGIPARFSGSNSGNTATLTISGTQAMDEAAYYCQAWDSTTVVFGGGTKLTVLG	
no binding (tested: 200 nM)		no binding (tested: 333 nM)	no binding (tested: 200 nM)	4.3				Ab13 (antibody, V domains shown, Fully human antibody) VH: EVQLVQSGGGLVQPGRSLRLSCAASGFTFDDYAMHWVRQAPGKGLEWVSGISWNSGSIGYADSVKGRFTISRDNAKNSLYLQMNSLRAEDTALYYCAKDTSNGGYSSSSFDYWGQGTLVTVSS VL: QSALTQPASVSGSPGQSITISCTGTSSDVGGYNYVSWYQQHPGTAPKLMIYDVSYRPSGVSNRFSGSKSGNTASLTISGLQAEDEADYYCSSYTSSSTLVFGTGTKVTVLG	
no binding (tested: 200 nM)	4.2	no binding (tested: 333 nM)	no binding (tested: 200 nM)	3.7	373	300	772	Ab10 (antibody, V domains shown, also called anti-pro/latent GDF8 antibody, Ab10) VH: EVQLVQSGGGVVQSGRSLRLSCVASGFSFSNYGMHWVRQAPGKGLEWLAFIWYDGSNKWYADSVKGRFTISRDNSKNALYLQMNSLRAEDTAVYYCARDRYSSSWGGGFDYWGQGTVLTVSS VL: NFMLTQPHSVSESPGRTVTIPCSGRGGSIASDSVQWYQQRPGSAPTTIIYEDNQRPSGVPDRFSGSVDSSSNSASLTISGLRTEDEADYYCQSYDASSLWVFGGKTKLTVLG	
no binding (tested: 200 nM)	18.8		no binding (tested: 200 nM)					Ab14 (antibody, V domains shown, Fully human antibody) VH: EVQLLESRAEVKKPGESLKISCKGSGYSFTSYWIGWVRQMPGKGPEWMGIIYPGDSDTRYSPSFQGQVTISADKSISTAYLQWSSLKASDTAMYYCARLVYGGYDEPGYYFDYWGQGTLVTVSS VL: not shown	Kd [1]: 2.1 nM
no binding (tested: 200 nM)	11		no binding (tested: 200 nM)	4.7				Ab15 (antibody, V domains shown, Fully human antibody) VH: EVQLVQSGGGLVQPGRSLRLSCAASGFTFDDYAMHWVRQAPGKGLEWVSGISWNSGSIGYADSVKGRFTISRDNSKNTLYLQMNSLRAEDTAVYYCAKVDGLEYSSGHNFDYWGQGTLVTVSS VL: QSALTQPPSVSGSPGQSVTISCTGSSSDVGYYDHVSWYQHHPGRAPKVIIYDVTKRPSGVPDRFSGSKSGNTASLTISGLQAEDEADYYCSSYAGSYTWVFGGGTELTVLG	Kd [1]: 9.5 nM
no binding (tested: 200 nM)	7.8	no binding (tested: 333 nM)	no binding (tested: 200 nM)	8.5		22000	12200	Ab9 (antibody, V domains shown) VH: QVQLVQSGAEVKKPGSSVKVSCKASGGTFSSYAISWVRQAPGQGLEWMGGIIPIFGTANYAQKFQGRVTITADESTSTAYMELSSLRSEDTAVYYCANHGLMDDSSGYYLSNAFDIWGQGTMVTVSS VL: not shown	Murine proGDF8 IC50, Reporter assay (murine pro-myostatin [12]): 19900 nM
